# Measured values as given in patent publication US20090042251.
# T1: reduced and carboxymethylated (S54G, P55N)-RNase T1, P00651
# T1 chain: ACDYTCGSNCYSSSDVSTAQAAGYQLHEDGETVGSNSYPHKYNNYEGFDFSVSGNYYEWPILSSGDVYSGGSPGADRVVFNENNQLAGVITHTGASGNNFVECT
# B1: SlpA (protein)
# chain: SESVQSNSAVLVHFTLKLDDGTTAESTRNNGKPALFRLGDASLSEGLEQHLLGLKVGDKTTFSLEPDAAFGVPSPDLIQYFSRREFMDAGEPEIGAIMLFTAMDGSEMPGVIREINGDSITVDFNHPLAGQTVHFDIEVLEIDPALEAHHHHHH
# B2: SlyD* ΔIF loop (protein)
# chain: MKVAKDLVVSLAYQVRTEDGVLVDESPVSAPLDYLHGHGSLISGLETALEGHEVGDKFDVAVGANDAYGATGHPGIIPPHATLKFNVEVVAIREATEEELAHGHVHGAHDHHHDHDHDHHHHHH
# B3: SlyD* (SlyD 1-165) (protein)
# chain: MKVAKDLVVSLAYQVRTEDGVLVDESPVSAPLDYLHGHGSLISGLETALEGHEVGDKFDVAVGANDAYGQYDENLVQRVPKDVFMGVDELQVGMRFLAETDQGPVPVEITAVEDDHVVVDGNHMLAGQNLKFNVEVVAIREATEEELAHGHVHGAHDHHHDHDHDHHHHHH
# B4: hFKBP12-IF4 (protein)
# chain: GVQVETISPGDGRTFPKRGQTAVVHYTGMLEDGKKFDSSRDRNKPFKFMLGKQEVIRGWEEGVAQMSVGQRAKLTISPDYAYGVPSPDLIQYFSRREFMDAGEPEIGAIMLFTAMDGSEMPGVIREINGDSITVDFNHPLAGQTLVFDVELLKLEHHHHHH
# B5: TcFKBP18 (protein)
# chain: MKVEAGDYVLFHYVGRFEDGEVFDTSYEEIARENGILVEEREYGPMWVRIGVGEIIPGLDEAIIGMEAGEKKTVTVPPEKAYGMPNPELVISVPREEFTKAGLEPQEGLYVMTDSGIAKIVSVGESEVSLDFNHPLAGKTLVFEVEVIEVKKAEEDSEA
# B6: hFKBP12-IF5 (protein)
# chain: GVQVETISPGDGRTFPKRGQTCVVHYTGMLEDGKKFDSSRDRNKPFKFMLGKQEVIRGWEEGVAQMSVGQRAKLTISPDYAYGMPNPELVISVPREEFTKAGLEPQEGLYVMTDSGIAKIVSVGESEVSLDFNHPLAGKTLVFDVELLKLEHHHHHH
# B7: hFKBP12-IF1 (C22A) (protein)
# chain: GVQVETISPGDGRTFPKRGQTAVVHYTGMLEDGKKFDSSRDRNKPFKFMLGKQEVIRGWEEGVAQMSVGQRAKLTISPDYAYGQYDENLVQRVPKDVFMGVDELQVGMRFLAETDQGPVPVEITAVEDDHVVVDGNHMLAGQNLVFDVELLKLEHHHHHH
# Experiments:
# [1] = target: reduced and carboxymethylated (S54G, P55N)-RNase T1 (UniProt P00651)
# [2] = target: T1, reduced and carboxymethylated (S54G, …)
Molecule,Specificity constant kcat/KM (RCM-T1 refolding assay) [2],further results
hFKBP12,–,Specificity constant kcat/KM (RCM-T1 refolding assay) [1]: 14000 M⁻¹ s⁻¹
B1,< 1000 M⁻¹ s⁻¹,–
B2,500 M⁻¹ s⁻¹,specificity constant relative to SlyD* [2]: amounts to only 0.07% of SlyD*
B3,680000 M⁻¹ s⁻¹,concentration at which refolding of RCM-T1 is twofold accelerated [2]: In the presence of as low as 2 nM SlyD* refolding of RCM-T1 is already twofold accelerated
B4,850000 M⁻¹ s⁻¹,specificity constant (kcat/KM) [2]: 800.000 M⁻¹ s⁻¹
B5,600000 M⁻¹ s⁻¹,–
B6,660000 M⁻¹ s⁻¹,–
B7,2.5e+06 M⁻¹ s⁻¹,concentration sufficient to double the folding rate of RCM-T1 [2]: Less than 1 nM FKBP12-IF1 are sufficient to double the folding rate of RCM-T1; specificity constant [2]: higher than 2.5×10^6 M^-1s^-1
